For 84 variants, reverse-splicing fitness results are on record in the RNAGym collection of RNA variant scans (doi:10.1093/molbev/msab373).

Sequences and labels used below:
B1: Azoarcus group I ribozyme (parent)
chain: GUGCCUUGCGCCGGGAAACCACGCAAGGGAUGGUGUCAAAUUCGGCGAAACCUAAGCGCCCGCCCGGGCGUAUGGCAACGCCGAGCCAAGCUUCGGCGCCUGCGCCGAUGAAGGUGUAGAGACUAGACGGCACCCACCUAAGGCAAACGCUAUGGUGAAGGCAUAGUCCAGGGAGUGGCGAAAGUCACACAAACCGG

The series covers variants of B1. In words: reverse-splicing fitness (ratio to wild type); higher = more active; in vitro selection; Mg2+ level not given. A digest of the protocol: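 An in vitro group I ribozyme library with randomized positions was T7-transcribed and gel-purified. In triplicate, 10 pmol RNA in EPPS pH 7.5 was reacted with 50 pmoles of a 30-nt RNA substrate for 1 h at 37 °C across several added MgCl2 levels (1–48 mM), then stopped with EDTA. Products were reverse transcribed from a substrate-complementary primer, PCR-amplified and sequenced (HiSeq 4000). Fitness is a variant's read proportion after selection over that before, normalised to wild type.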
Consider C82G A145G C150A C169A, for which the reverse-splicing fitness turned out to be 0.0117. The result for C82G A145G C150A C169U reads 0.0106; that for C82U A111C A120C A145C C150G C169A U176A, 0.00661; that for C82U A111C A120C A145C C150G C169A U176G, 0.00633. The result for C82U A111C A120C A145C C150G C169A U176C reads 0.00704. On to C82G C150G C169A U176A, for which the reverse-splicing fitness was determined as 0.0112. The figure for C82G C150G C169A U176C is 0.00997.

Consider C82G C150G C169A U176G, for which the reverse-splicing fitness amounted to 0.00752. Turning to C82U A111C A120C A145G C150A, the reverse-splicing fitness came to 0.01.

As to C82G A145C C150U C169G U176G, the reverse-splicing fitness came to 0.00533. The result for C82G A145C C150U C169G U176A reads 0.019; that for C82G A145C C150U C169G U176C, 0.00942; that for C82G A145C C169U U176C, 0.0115. The result for C82G A145C C169U U176A reads 0.0128; that for C82G A145C C169U U176G, 0.00465; that for C82U A111C A120C A145C C150U C169U U176G, 0.0068. The result for C82U A111C A120C A145C C150U C169U U176A reads 0.0145; that for C82U A111C A120C A145C C150U C169U U176C, 0.0122. On to C82G A145G C150G C169U U176A, for which the reverse-splicing fitness stood at 0.0126.

C82G A145G C150G C169U U176C: the reverse-splicing fitness was 0.0131.

In the case of C82G A145G C150G C169U U176G, the reverse-splicing fitness was 0.0072.

For the variant C82G C150U C169U U176G, the reverse-splicing fitness came to 0.00459. Regarding C82G C150U C169U U176C, the reverse-splicing fitness was found to be 0.0159. The result for C82G C150U C169U U176A reads 0.0142. The result for C82G C150U C169A reads 0.0106. The figure for C82G C150U C169U is 0.0143. As to C82G C150U C169G, the reverse-splicing fitness stood at 0.0104.

As to C82G C150A C169U U176C, the reverse-splicing fitness worked out at 0.0141. As for C82G C150A C169U U176G, the reverse-splicing fitness was determined as 0.0071. As for C82G C150A C169U U176A, the reverse-splicing fitness was 0.0154. The figure for C82U A111C A120C A145C C150G C169G is 0.00681; for C82U A111C A120C A145C C150G C169A it is 0.00861. Consider C82U A111C A120C A145C C150G C169U, for which the reverse-splicing fitness came to 0.00884. The figure for C82G A145U C150U U176A is 0.236; for C82G A145U C150U U176C it is 0.234; for C82G A145U C150U U176G it is 0.0935.

On to C82G A145U C150A C169U U176A, for which the reverse-splicing fitness was 0.0124. The result for C82G A145U C150A C169U U176C reads 0.013; that for C82G A145U C150A C169U U176G, 0.00507. In the case of C82G A145C C150A C169U U176C, the reverse-splicing fitness is 0.00742. On to C82G A145C C150A C169U U176A, for which the reverse-splicing fitness came out at 0.0123. Take C82G A145C C150A C169U U176G: the reverse-splicing fitness came out at 0.00493.

With C82G A145U C150A C169G U176G, the reverse-splicing fitness is 0.00436. Regarding C82G A145U C150A C169G U176A, the reverse-splicing fitness was determined as 0.0109. As to C82G A145U C150A C169G U176C, the reverse-splicing fitness worked out at 0.0129. As to C82G A145G C150U U176A, the reverse-splicing fitness is 0.264. With C82G A145G C150U U176G, the reverse-splicing fitness is 0.106. The result for C82G A145G C150U U176C reads 0.291; that for C82G A145G C169A U176A, 0.0187. The figure for C82G A145G C169A U176C is 0.0249; for C82G A145G C169A U176G it is 0.00413; for C82G A120U U176C it is 0.113. The result for C82G A120U U176G reads 0.0201; that for C82G A120U U176A, 0.0729. On to C82G A145C C150U C169U U176G, for which the reverse-splicing fitness stood at 0.00436. In the case of C82G A145C C150U C169U U176A, the reverse-splicing fitness stood at 0.0142.

Consider C82G A145C C150U C169U U176C, for which the reverse-splicing fitness was determined as 0.00905.

In the case of C82U A111C A120C A145G C150A C169A, the reverse-splicing fitness was 0.00917. With C82U A111C A120C A145C C150U C169U, the reverse-splicing fitness was 0.0108. Consider C82U A111C A120C A145C C150U C169G, for which the reverse-splicing fitness worked out at 0.00644.

As for C82U A111C A120C A145C C150U C169A, the reverse-splicing fitness was determined as 0.00742. Take C82G A145G C150A C169U U176G: the reverse-splicing fitness was 0.00552.

Turning to C82G A145G C150A C169U U176A, the reverse-splicing fitness came out at 0.0137. The result for C82G A145G C150A C169U U176C reads 0.0141; that for C82G A145C C169U, 0.016.

On to C82G A145C C169A, for which the reverse-splicing fitness came to 0.00859. The figure for C82G A145C C169G is 0.0115; for C82U A111C A120C A145C C150U C169A U176C it is 0.00703. Turning to C82U A111C A120C A145C C150U C169A U176G, the reverse-splicing fitness came to 0.00658. Consider C82U A111C A120C A145C C150U C169A U176A, for which the reverse-splicing fitness stood at 0.012. The figure for C82G A145U C169A U176A is 0.00756; for C82G A145U C169A U176C it is 0.00844; for C82G A145U C169A U176G it is 0.00461.

On to C82G A145U C150A C169A U176A, for which the reverse-splicing fitness worked out at 0.0121.

Regarding C82G A145U C150A C169A U176C, the reverse-splicing fitness is 0.0106. The figure for C82G A145U C150A C169A U176G is 0.00561. For C82G A145C, the reverse-splicing fitness turned out to be 0.45.

Consider C82G A145U, for which the reverse-splicing fitness came out at 0.509. The result for C82G A145G reads 0.458; that for C82G A145C C169G U176G, 0.0041. The result for C82G A145C C169G U176A reads 0.0202; that for C82G A145C C169G U176C, 0.011; that for C82U A111C A120C, 0.0271. On to C82U A111C A120C A145C C150U, for which the reverse-splicing fitness was 0.0104.
